Read-outs that look alike come from different tables or passages of the source.

In US20170121382A1 (published 2017) one finds Kd data, which are given here for two molecules.

What all share (experiment): SPR
In experiment [1] the target is T1, human recombinant DMP1 (human, UniProt Q13316 17-513).
T1 chain: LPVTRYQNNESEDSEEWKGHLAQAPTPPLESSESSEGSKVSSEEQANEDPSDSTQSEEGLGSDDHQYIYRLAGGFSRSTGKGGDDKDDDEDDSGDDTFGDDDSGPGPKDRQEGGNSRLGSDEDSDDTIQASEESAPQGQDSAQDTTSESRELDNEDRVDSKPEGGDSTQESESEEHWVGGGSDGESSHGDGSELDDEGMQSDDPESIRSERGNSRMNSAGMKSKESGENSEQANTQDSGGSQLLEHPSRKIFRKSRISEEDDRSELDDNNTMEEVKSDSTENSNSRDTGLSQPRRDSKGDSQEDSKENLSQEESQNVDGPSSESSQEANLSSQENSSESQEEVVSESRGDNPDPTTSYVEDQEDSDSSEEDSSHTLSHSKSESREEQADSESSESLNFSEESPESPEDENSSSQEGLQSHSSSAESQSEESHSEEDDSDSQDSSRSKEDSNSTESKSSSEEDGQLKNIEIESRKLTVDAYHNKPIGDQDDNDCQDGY

Experiment [2] addresses T1, human recombinant DMP1.
Another experiment deals with ASARM peptide.

B1: soluble human recombinant PHEX (enzyme)
chain: SLQAKQEYCLKPECIEAAAAILSKVNLSVDPCDNFFRFACDGWISNNPIPEDMPSYGVYPWLRHNVDLKLKELLEKSISRRRDTEAIQKAKILYSSCMNEKAIEKADAKPLLHILRHSPFRWPVLESNIGPEGVWSERKFSLLQTLATFRGQYSNSVFIRLYVSPDDKASNEHILKLDQATLSLAVREDYLDNSTEAKSYRDALYKFMVDTAVLLGANSSRAEHDMKSVLRLEIKIAEIMIPHENRTSEAMYNKMNISELSAMIPQFDWLGYIKKVIDTRLYPHLKDISPSENVVVRVPQYFKDLFRILGSERKKTIANYLVWRMVYSRIPNLSRRFQYRWLEFSRVIQGTTTLLPQWDKCVNFIESALPYVVGKMFVDVYFQEDKKEMMEELVEGVRWAFIDMLEKENEWMDAGTKRKAKEKARAVLAKVGYPEFIMNDTHVNEDLKAIKFSEADYFGNVLQTRKYLAQSDFFWLRKAVPKTEWFTNPTTVNAFYSASTNQIRFPAGELQKPFFWGTEYPRSLSYGAIGVIVGHEFTHGFDNNGRKYDKNGNLDPWWSTESEEKFKEKTKCMINQYSNYYWKKAGLNVKGKRTLGENIADNGGLREAFRAYRKWINDRRQGLEEPLLPGITFTNNQLFFLSYAHVRCNSYRPEAAREQVQIGAHSPPQFRVNGAISNFEEFQKAFNCPPNSTMNRGMDSCRLW
For B1, the Kd with human recombinant DMP1 [1] and with human recombinant DMP1 [2] was 248 nM in each case.

B2: PHEX (enzyme)
chain: B1 chain
B2 gave a Kd in the experiment with ASARM peptide of 176 nM.
